Measurements: patent US20260116960A1 (SHANGHAI HONGCHENG BIOPHARMACEUTICAL, published 2026)

How the values were obtained:
[1] = target: T1, human CTLA-4 on the cell surface (human, UniProt P16410 36-223); experiment: flow cytometry competition, CHO-hCTLA-4 cells, biotin-human CD80
T1 construct: whole, on cells; also called CHO-hCTLA-4 cells; CHOK1-hCTLA4 cells
Description: CHO-hCTLA-4 cells were obtained by trypsin digestion, washed twice with PBS containing 2% FBS (FACS buffer), and resuspended in FACS buffer. 200 μL of the cells were added to a 96-well U-bottom plate, approximately 2×10⁵ cells/well. After centrifugation at 300 g for 5 minutes, the supernatant was discarded. […] After washing three times with FACS buffer, 100 μL/well of 1:800 diluted PE Streptavidin was added and incubated at 4° C. for 50 min. After washing three times with FACS buffer, 150 μL/well of PBS was added to resuspend the cells, and the fluorescence signal was detected on a flow cytometer (BECKMAN COULTER cytoFLEX). The four-parameter model was used to fit the binding activity and the IC₅₀ value of the blocking activity of each antibody was calculated.

[2] = target: T2, Biotinylated Human VEGF165 (Acro, Catalog No. VE5-H82Q0) (human, UniProt P15692-4 27-191, biotinylated (site not stated)); experiment: flow cytometry: antibody titrated on 293T-hPD-1 cells, then mixture of biotin-hVEGF165 and hCTLA4-mFc; PE streptavidin signal; VEGF signal after binding to cell surface PD-1
T2 construct: Bought protein; also called Biotinylated-hVEGF165; Biotin-hVEGF165
T2 sequence (P15692 other isoform, or with tags, fused parts or gaps limits assumed): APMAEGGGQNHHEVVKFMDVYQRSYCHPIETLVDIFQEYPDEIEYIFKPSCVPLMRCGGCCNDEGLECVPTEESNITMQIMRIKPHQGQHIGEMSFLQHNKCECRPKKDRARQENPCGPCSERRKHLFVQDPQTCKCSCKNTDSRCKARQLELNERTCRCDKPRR
Description: (§1) 200 μL/well of the cells were added to a 96-well U-bottom plate. After centrifugation at 300 g for 5 minutes, the supernatant was discarded and 100 μL of antibody solution serially diluted with FACS buffer was added to each well in triplicate (with starting concentration of 200 nM, 3-fold serial dilution, and the same volume of FACS buffer was used as a negative control). Mixed well and incubated at 4° C. for 60 min. After washing the plate three times with FACS buffer, a mixture consisting of 1 μg/mL Biotin-hVEGF165 and 1 μg/mL hCTLA4-mFc (DIMA BIOTECH, Catalog No.: PME100017) in a 1:1 volume ratio was added to each well at 100 μL/well to detect the simultaneously binding activity of the trispecific antibodies to CTLA-4 and VEGF after binding to cell surface PD-1. […] After washing the plate three times with FACS buffer, 100 μL/well of PBS solution was added to resuspend the cells, and the fluorescence signal was detected on a flow cytometer (BECKMAN COULTER cytoFLEX). The binding activity was fitted using a four-parameter model, and the EC₅₀ value of each antibody was calculated.

[3] = target: T3, hCTLA4-mFc (DIMA BIOTECH, Catalog No. PME100017) (human, UniProt P16410 36-161, limits assumed); experiment: flow cytometry: antibody titrated on 293T-hPD-1 cells, then mixture of biotin-hVEGF165 and hCTLA4-mFc; AF647 anti-mIgG signal; CTLA-4 signal after binding to cell surface PD-1
T3 construct: Bought protein; also called human CTLA-4 mouse Fc fusion; not shown: mouse Fc (mFc)
T3 sequence (P16410 36-161 limits assumed): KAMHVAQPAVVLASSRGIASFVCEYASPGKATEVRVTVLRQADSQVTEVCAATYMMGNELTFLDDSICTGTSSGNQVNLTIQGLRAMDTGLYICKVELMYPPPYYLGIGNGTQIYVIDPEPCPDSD
Description: as §1

T1 sequence (P16410 36-223): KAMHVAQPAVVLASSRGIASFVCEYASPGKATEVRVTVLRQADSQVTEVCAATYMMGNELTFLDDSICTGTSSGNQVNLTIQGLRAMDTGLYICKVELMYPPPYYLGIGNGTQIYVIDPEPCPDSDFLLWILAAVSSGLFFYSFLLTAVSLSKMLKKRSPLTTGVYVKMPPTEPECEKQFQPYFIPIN

B1: HC010-F10 (trispecific antibody, human IgG4 S228P, kappa)
heavy: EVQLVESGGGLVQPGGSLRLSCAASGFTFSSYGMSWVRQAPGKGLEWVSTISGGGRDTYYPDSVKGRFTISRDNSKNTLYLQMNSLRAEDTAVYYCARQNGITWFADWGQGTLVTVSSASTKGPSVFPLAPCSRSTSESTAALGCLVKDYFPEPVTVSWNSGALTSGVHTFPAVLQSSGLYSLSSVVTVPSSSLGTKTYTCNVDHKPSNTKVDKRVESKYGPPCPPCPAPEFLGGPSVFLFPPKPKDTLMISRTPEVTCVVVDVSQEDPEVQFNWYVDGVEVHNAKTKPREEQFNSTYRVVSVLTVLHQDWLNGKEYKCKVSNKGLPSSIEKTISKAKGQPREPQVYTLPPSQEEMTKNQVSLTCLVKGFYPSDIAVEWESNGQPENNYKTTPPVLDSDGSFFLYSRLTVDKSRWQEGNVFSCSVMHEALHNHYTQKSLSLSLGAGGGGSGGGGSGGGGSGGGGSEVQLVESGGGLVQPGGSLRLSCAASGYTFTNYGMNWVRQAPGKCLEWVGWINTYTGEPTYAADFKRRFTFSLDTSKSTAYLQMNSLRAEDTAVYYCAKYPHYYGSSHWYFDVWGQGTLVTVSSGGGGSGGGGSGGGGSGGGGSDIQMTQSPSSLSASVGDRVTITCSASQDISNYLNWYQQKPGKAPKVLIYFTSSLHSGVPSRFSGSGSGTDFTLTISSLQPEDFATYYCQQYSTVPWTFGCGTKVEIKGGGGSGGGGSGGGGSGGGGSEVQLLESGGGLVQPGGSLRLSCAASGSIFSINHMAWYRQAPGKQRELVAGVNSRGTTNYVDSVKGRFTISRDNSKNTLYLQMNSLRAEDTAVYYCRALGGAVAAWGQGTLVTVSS
light: DIQMTQSPSSLSASVGDRVTITCRASESVDNYGISFMNWYQQKPGKAPKLLIYAASNQGSGVPSRFSGSGSGTDFTLTISSLQPEDFATYYCQQSKEVPWTFGGGTKVEIKRTVAAPSVFIFPPSDEQLKSGTASVVCLLNNFYPREAKVQWKVDNALQSGNSQESVTEQDSKDSTYSLSSTLTLSKADYEKHKVYACEVTHQGLSSPVTKSFNRGEC
notes: light: CQ1-3/1-11 VL-kappa; also called H010-F10
IC50 [1]: 22.6 nM
EC50 [2]: 2.83 nM
EC50 [3]: 3.32 nM
